pIC50: −log10 of the molar value.
Test system: HCMV intact particles AD169 (Human cytomegalovirus AD169)
Assay: cell_activity
Settings: 2'-NH2 on all pyrimidines, plaque formation, 1e5 PFU/ml

GGGAGACAAGAAUAAACGGUCAACUCGAGCCACCCCAUAACCCUCAAUACUCCAGGGAUUGGGUUCGACAUGAGGG [L19]
pIC50 (viral yield IC50 35±7 nM): 7.46

GGGAGACAAGAAUAAACGGUCAAUGUGGGUCGUGUUAAGCUUCGGGCUUCGCGCAAAUCUGGGUUCGACAUGAGGG [L66]
pIC50 (viral yield IC50 18±4 nM): 7.82

GGGAGACAAGAAUAAACGGUCAAUUACGGUCACCUUACCCCUGGGUGUGCUCUUCCCGGUGGGUUCGACAUGAGGG [L13]
pIC50 (viral yield IC50 100±20 nM): 6.90

From patent publication US6849610
